Test results published in publication PMC4824100.

T1: FKBP25 (FKBP3) wild type (Homo sapiens, UniProt Q00688 1-224)
T1 sequence: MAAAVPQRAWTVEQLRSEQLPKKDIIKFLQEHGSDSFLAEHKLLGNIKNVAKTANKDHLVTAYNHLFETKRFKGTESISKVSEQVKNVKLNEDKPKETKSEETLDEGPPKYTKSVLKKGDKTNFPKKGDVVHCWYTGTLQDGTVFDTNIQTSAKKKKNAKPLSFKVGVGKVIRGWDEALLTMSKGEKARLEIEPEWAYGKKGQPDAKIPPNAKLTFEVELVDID

B1: DNA-1 (dT-EDTA at position 5) (dsDNA)
DNA 1: AGGGTCTCCATTTTGAAGCATGC
DNA 2: GCATGCTTCAAAATGGAGACCCT
modifications: dT-EDTA at T5 of strand 1 (Mn2+ or Ca2+ chelated)
B2: DNA-2 (dT-EDTA at position 27) (dsDNA)
DNA 1: AGGGTCTCCATTTTGAAGCATGC
DNA 2: GCATGCTTCAAAATGGAGACCCT
modifications: dT-EDTA at residue 27 (T4 of strand 2; numbering 24-46 on antisense)
B3: DNAYY1 23-bp (dsDNA)
DNA 1: AGGGTCTCCATTTTGAAGCATGC
DNA 2: GCATGCTTCAAAATGGAGACCCT

Key:
FKBP25 (FKBP3) wild type = target: T1, FKBP25 (FKBP3) wild type; assay: NMR PRE
YY1-DBD = YY1-DBD (UniProt P25490 286-414); assay: ITC
YY1-DBD, sequence (P25490 286-414): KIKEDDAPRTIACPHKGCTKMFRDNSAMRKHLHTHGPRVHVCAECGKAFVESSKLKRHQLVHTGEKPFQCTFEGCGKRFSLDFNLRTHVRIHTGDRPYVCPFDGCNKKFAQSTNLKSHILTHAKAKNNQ

Binder | binding result (FKBP25 (FKBP3) wild type) | Kd (YY1-DBD) [nM]
B1 | binds | –
B2 | binds | –
B3 | – | 390 ± 600
